Data from publication PMC9482650, “Quantitative fragmentomics allow affinity mapping of interactomes” (Nature Communications, 2022).

What was measured:
Assay in all cases: holdup assay
Parameters in all cases: key: below the threshold = too weak to quantify, mostly under pKd 3.1 to 4
Settings in all cases: plain residues with an end cap or a label only (N-terminal biotin on a linker: ttds)
[1] = molecular target: T1, CNKSR1, Q969H4
T1 sequence (Q969H4 191-295, limits assumed, looked up): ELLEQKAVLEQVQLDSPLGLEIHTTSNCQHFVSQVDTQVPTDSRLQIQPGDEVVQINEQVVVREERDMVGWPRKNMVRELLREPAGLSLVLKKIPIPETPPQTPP

[2] = molecular target: GIPC3, Q8TF64
[3] = molecular target: IL16_2, Q14005
[4] = molecular target: T2, INTU, Q9ULD6
T2 sequence (Q9ULD6 180-273, limits assumed, looked up): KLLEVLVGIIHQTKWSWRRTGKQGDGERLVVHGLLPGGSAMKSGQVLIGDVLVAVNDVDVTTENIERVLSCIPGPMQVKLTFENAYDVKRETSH

[5] = molecular target: T3, LNX2_4, Q8N448
T3 sequence (Q8N448 595-690, limits assumed, looked up): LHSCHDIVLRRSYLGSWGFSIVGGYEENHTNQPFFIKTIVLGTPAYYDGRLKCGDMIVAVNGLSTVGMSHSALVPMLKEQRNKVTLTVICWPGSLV

[6] = molecular target: MAGI1_3, Q96QZ7
[7] = molecular target: T4, MAGI2_1, Q86UL8
T4 sequence (Q86UL8 12-111, limits assumed, looked up): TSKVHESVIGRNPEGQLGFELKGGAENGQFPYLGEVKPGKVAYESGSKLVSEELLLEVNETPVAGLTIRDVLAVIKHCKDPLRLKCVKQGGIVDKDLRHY

[8] = molecular target: MAGI3_4, Q5TCQ9
[9] = molecular target: T5, MLLT4, P55196
T5 sequence (P55196 1002-1103, limits assumed, looked up): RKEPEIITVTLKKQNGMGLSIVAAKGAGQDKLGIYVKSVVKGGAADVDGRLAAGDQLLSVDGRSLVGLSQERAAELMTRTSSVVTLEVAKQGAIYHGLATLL

[10] = molecular target: T6, MPDZ_11, O75970
T6 sequence (O75970 1720-1817, limits assumed, looked up): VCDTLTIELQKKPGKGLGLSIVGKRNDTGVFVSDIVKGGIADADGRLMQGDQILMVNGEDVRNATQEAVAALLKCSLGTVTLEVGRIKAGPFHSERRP

[11] = molecular target: PARD3B_2, Q8TEW8
[12] = molecular target: PARD3B_3, Q8TEW8
[13] = molecular target: PARD3_1, Q8TEW0
[14] = molecular target: T7, PDZD2_3, O15018
T7 sequence (O15018 581-682, limits assumed, looked up): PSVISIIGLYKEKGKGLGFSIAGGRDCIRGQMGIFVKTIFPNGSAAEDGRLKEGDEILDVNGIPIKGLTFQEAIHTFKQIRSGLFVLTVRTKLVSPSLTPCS

[15] = molecular target: T8, PDZRN3_2, Q9UPQ7
T8 sequence (Q9UPQ7 414-513, limits assumed, looked up): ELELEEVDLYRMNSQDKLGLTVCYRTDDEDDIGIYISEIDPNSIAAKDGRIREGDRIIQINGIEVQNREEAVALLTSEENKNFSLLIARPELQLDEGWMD

[16] = molecular target: T9, PTPN4, P29074
T9 sequence (P29074 512-599, limits assumed, looked up): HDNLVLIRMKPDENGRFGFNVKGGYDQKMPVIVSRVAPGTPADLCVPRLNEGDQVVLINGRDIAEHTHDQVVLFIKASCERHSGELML

[17] = molecular target: RIMS1, Q86UR5
[18] = molecular target: SCRIB_4, Q14160
[19] = molecular target: T10, SHANK2, Q9UPX8
T10 sequence (Q9UPX8 621-730, limits assumed, looked up): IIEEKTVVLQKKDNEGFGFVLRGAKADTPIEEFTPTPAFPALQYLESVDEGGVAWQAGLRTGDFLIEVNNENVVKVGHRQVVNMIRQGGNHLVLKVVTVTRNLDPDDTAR

[20] = molecular target: T11, SHROOM2, Q13796
T11 sequence (Q13796 21-118, limits assumed, looked up): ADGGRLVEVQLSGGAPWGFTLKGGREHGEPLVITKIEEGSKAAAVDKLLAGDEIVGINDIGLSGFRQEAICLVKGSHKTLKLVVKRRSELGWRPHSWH

[21] = molecular target: T12, SHROOM4, Q9ULL8
T12 sequence (Q9ULL8 5-102, limits assumed, looked up): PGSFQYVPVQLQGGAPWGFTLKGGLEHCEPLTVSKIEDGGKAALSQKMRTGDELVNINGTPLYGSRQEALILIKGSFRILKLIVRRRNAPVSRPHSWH

[22] = molecular target: T13, TJP3_1, O95049
T13 sequence (O95049 6-103, limits assumed, looked up): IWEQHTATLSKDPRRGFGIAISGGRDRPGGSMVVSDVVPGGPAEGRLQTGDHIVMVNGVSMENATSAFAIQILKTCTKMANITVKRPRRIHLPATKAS

[23] = molecular target: T14, USH1C_1, Q9Y6N9
T14 sequence (Q9Y6N9 82-179, limits assumed, looked up): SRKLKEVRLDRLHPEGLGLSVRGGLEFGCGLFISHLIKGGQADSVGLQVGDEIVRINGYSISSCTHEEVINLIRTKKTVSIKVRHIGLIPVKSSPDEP

Sequence of MAGI1_3, Q96QZ7 (Q96QZ7 638-725): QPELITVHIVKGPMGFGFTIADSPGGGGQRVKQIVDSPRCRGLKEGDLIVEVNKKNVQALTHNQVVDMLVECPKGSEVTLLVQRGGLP
Sequence of PARD3_1, Q8TEW0 (Q8TEW0 264-372): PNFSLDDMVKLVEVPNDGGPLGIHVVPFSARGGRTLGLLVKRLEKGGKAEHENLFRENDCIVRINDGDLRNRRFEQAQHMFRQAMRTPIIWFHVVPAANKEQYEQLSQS
Sequence of RIMS1, Q86UR5 (Q86UR5 584-692): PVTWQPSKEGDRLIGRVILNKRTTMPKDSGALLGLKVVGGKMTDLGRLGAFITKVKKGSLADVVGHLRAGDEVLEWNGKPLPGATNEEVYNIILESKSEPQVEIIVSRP
Sequence of PARD3B_2, Q8TEW8 (Q8TEW8 376-471): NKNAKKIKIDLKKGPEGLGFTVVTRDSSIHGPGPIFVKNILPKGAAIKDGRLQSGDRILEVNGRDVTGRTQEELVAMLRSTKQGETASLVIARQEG
Sequence of MAGI3_4, Q5TCQ9 (Q5TCQ9 716-815): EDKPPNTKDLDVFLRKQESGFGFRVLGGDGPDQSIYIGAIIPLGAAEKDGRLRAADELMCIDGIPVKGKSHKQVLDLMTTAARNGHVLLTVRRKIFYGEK
Sequence of GIPC3, Q8TF64 (Q8TF64 107-202): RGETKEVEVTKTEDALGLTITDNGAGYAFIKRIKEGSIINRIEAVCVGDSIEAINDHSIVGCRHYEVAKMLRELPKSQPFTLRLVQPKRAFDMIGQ
Sequence of SCRIB_4, Q14160 (Q14160 1095-1204): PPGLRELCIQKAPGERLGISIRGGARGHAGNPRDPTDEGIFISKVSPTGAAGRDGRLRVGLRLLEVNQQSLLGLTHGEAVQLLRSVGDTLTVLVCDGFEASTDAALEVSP
Sequence of IL16_2, Q14005 (Q14005 350-450): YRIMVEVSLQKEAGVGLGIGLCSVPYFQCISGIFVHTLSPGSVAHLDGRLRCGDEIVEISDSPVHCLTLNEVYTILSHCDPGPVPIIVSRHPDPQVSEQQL
Sequence of PARD3B_3, Q8TEW8 (Q8TEW8 490-594): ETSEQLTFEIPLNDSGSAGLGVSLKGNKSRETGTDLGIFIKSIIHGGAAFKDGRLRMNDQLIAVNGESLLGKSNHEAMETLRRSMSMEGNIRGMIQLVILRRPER

STLTIFETAL [ABCC4, O15439] was tested, and the pKd [1] was “below the threshold”, the pKd [2] was 4.21 and the pKd [3] was “below the threshold”. For the same binder, the pKd [4] was “below the threshold”, the pKd [5] was “below the threshold” and the pKd [6] was “below the threshold”. For the same binder, the pKd [7] was “below the threshold”, the pKd [8] was “below the threshold” and the pKd [9] was “below the threshold”. The pKd [10] was “below the threshold”, the pKd [11] was “below the threshold” and the pKd [12] was “below the threshold”. For the same binder, the pKd [13] was “below the threshold”, the pKd [14] was 4.32 and the pKd [15] was “below the threshold”. The pKd [16] was 4.97, the pKd [17] was “below the threshold” and the pKd [18] was 4.29. For the same binder, the pKd [19] was 4.85, the pKd [20] was 4.44 and the pKd [21] was “below the threshold”. For the same binder, the pKd [22] was “below the threshold” and the pKd [23] was 4.33.
